Assay results taken from patent publication US6528283 (INSTITUTE NATIONAL DE LA SANT ET DE LA RECHERCHE M DICALE, dated 2003).
Read-outs that look alike come from different tables or passages of the source.

T1: GAL4 DNA-binding domain alone (empty pAS2-1 vector, negative control bait) (UniProt P04386 1-47, limits assumed)
T1 chain (looked up): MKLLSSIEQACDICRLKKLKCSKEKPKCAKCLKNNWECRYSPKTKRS

B1: hD53 interactor (GAL4 activation domain fused to full-length hD53, pACT2hD53) (other)
chain: ANFNQSGNIADSSLSFTFTNSSNGPNLITTQTNSQALSQPIASSNVHDNFMNNEITASKIDDGNNSKPLSPGWTDQTAYNAFGITTGMFNTTTMDDVYNYLFDDEDTPPNPKKEMEAQAQGLLETEPLQGTDEDAVASADFSSMLSEEEKEELKAELVQLEDEITTLRQVLSAKERHLVEIKQKLGMNLMNELKQNFSKSWHDMQTTTAYKKTHETLSHAGQKATAAFSNVGTAISKKFGDMSYSIRHSISMPAMRNSPTFKSFEERVETTVTSLKTKVGGTNPNGGSFEEVLSSTAHASAQSLAGGSRRTKEEELQC
B2: mD52(95-185) bait (GAL4 DNA-binding domain fused to the C-terminal half of mD52, pAS2-1mD52(95-185)) (other)
chain: MKLLSSIEQACDICRLKKLKCSKEKPKCAKCLKNNWECRYSPKTKRSAYKKTSETLSQAGQKASAAFSSVGSVITKKLEDVKNSPTFKSFEEKVENLKSKVGGAKPAGGDFGEVLNSTANATSTMTTEPPPEQMTESP
notes: range 1-47
B3: hD52 bait (GAL4 DNA-binding domain fused to full-length hD52, pAS2-1hD52) (other)
chain: MKLLSSIEQACDICRLKKLKCSKEKPKCAKCLKNNWECRYSPKTKRSMDRGEQGLLRTDPVPEEGEDVAATISATETLSEEEQEELRRELAKVEEEIQTLSQVLAAKEKHLAEIKRKLGINSLQELKQNIAKGWQDVTATSAYKKTSETLSQAGQKASAAFSSVGSVITKKLEDVKNSPTFKSFEEKVENLKSKVGGTKPAGGDFGEVLNSAANASATTTEPLPEKTQESL
notes: range 1-47; Fusion expressed in yeast; also called pAS2-1D52; full-length hD52 bait

Key:
[1] = molecular target: T1, GAL4 DNA-binding domain alone (empty …); assay: cell-based or functional assay
[2] = molecular target: hD54-ins2 bait (GAL4 DNA-binding domain fused to hD54-ins2, pAS2-1hD54-ins2) (human, UniProt P04386 1-47 (Saccharomyces cerevisiae entry), limits assumed); assay: cell-based or functional assay
[3] = molecular target: hD54+ins2 bait (GAL4 DNA-binding domain fused to hD54+ins2, pAS2-1hD54+ins2) (human, UniProt P04386 1-47 (Saccharomyces cerevisiae entry), limits assumed); assay: cell-based or functional assay
[4] = molecular target: B3; assay: cell-based or functional assay
[5] = molecular target: T2, mD52 bait (GAL4 DNA-binding domain fused to full-length mD52, pAS2-1mD52) (mouse, UniProt P04386 1-47 (Saccharomyces cerevisiae entry), limits assumed); assay: cell-based or functional assay
[6] = molecular target: hD53 bait (GAL4 DNA-binding domain fused to full-length hD53, pAS2-1hD53) (human, UniProt P04386 1-47 (Saccharomyces cerevisiae entry), limits assumed); assay: cell-based or functional assay
[7] = molecular target: mD52(1-95) bait (GAL4 DNA-binding domain fused to the N-terminal half of mD52, pAS2-1mD52(1-95)) (mouse, UniProt P04386 1-47 (Saccharomyces cerevisiae entry)); assay: cell-based or functional assay
[8] = molecular target: B2; assay: cell-based or functional assay
[9] = molecular target: T2, mD52 bait (GAL4 DNA-binding domain …); assay: cell-based or functional assay; remark: listed apart in the source
[10] = molecular target: eukaryotic initiation factor 4AII library interactor (pAD-GAL4 construct) (human, UniProt P04386 761-881; Q14240 1-407, limits assumed); assay: yeast two-hybrid, retransfection of a library interactor in Hf7c
Method: Transformants were plated onto solid SD/-His-Trp-Leu (incorporating 35 mM 3-AT in the case of Y190 transformants) and incubated for up to 14 days at 30° C. […] Colonies which remained His+, and in the case of Y190 co-transformants, were also lacZ+, were re-streaked onto fresh plates to check that all colonies were of uniform phenotype. After 6 days incubation at 30° C., yeast colonies were directly harvested, and plasmid DNA was isolated and used to transfect XL1 Blue. Mini-preparations of plasmid DNA were performed for at least 5 XL1 Blue colonies per transfection, with the results of restriction digests differentiating potential interactors from bait plasmids. […] Phenotypes of resulting co-transfectants were assayed quantitatively and/or qualitatively as described above.

[11] = molecular target: B1; assay: yeast two-hybrid, quantitative β-galactosidase assay in Y190
Method: Interactions between baits and interactors were assessed by qualitatively and/or quantitatively determining HIS3 and lacZ reporter gene activity in Y190 co-transfectants. […] For quantitative assessment of interactions, β-galactosidase activity was measured using the substrate o-nitrophenyl β-D-galactopyranoside (ONPG) in liquid cultures (SD/-His-Trp-Leu +35 mM 3-AT) of Y190 co-transfectants.

Binder | β-galactosidase activity, yeast two-hybrid (Y190) [1] | β-galactosidase activity, yeast two-hybrid (Y190) [2] | β-galactosidase activity, yeast two-hybrid (Y190) [3] | β-galactosidase activity, yeast two-hybrid (Y190) [4] | β-galactosidase activity, yeast two-hybrid (Y190) [5] | β-galactosidase activity, yeast two-hybrid (Y190) [6] | β-galactosidase activity, yeast two-hybrid (Y190) [7] | β-galactosidase activity, yeast two-hybrid (Y190) [8] | β-galactosidase activity, yeast two-hybrid (Y190) [9] | binding result [10] | binding result [11]
B1 | 0 β-galactosidase activity units (positive control = 1000) | 17.6 β-galactosidase activity units (positive control = 1000) | 11.7 β-galactosidase activity units (positive control = 1000) | 15.2 β-galactosidase activity units (positive control = 1000) | 6.07 β-galactosidase activity units (positive control = 1000) | 18.1 β-galactosidase activity units (positive control = 1000) | 6.95 β-galactosidase activity units (positive control = 1000) | 0.5 β-galactosidase activity units (positive control = 1000) | 5.44 β-galactosidase activity units (positive control = 1000) | – | –
B2 | – | – | – | – | – | – | – | – | – | no binding | no binding
B3 | – | – | – | – | – | – | – | – | – | no binding | –
